Reference: patent US20260008803A1

Key:
FcγRIIIa [1] = target: FcγRIIIa (UniProt P08637); assay: SPR; fold improvement in binding avidity, commercial rituximab as the reference
FcγRIIIa [2] = target: FcγRIIIa (UniProt P08637); assay: SPR (Biacore T200, single cycle kinetics, 25 C); antibody captured by anti-human Fab, FcγRIIIa as analyte; 1:1 Langmuir fit
FcγRIIIa [3] = target: FcγRIIIa (UniProt P08637); assay: SPR; fold improvement in binding avidity against commercial rituximab

Chain of FcγRIIIa (P08637 17-208 limits assumed): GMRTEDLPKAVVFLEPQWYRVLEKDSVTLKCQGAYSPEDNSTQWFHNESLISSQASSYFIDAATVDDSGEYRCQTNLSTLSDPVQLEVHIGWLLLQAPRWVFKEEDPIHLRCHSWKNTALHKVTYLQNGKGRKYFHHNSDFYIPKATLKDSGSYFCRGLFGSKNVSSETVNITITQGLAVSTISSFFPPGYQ

Row | Substance | Fold (FcγRIIIa [1]) [fold] | Kd (FcγRIIIa [2]) [nM] | koff (FcγRIIIa [2]) [s⁻¹] | kon (FcγRIIIa [2]) [M⁻¹ s⁻¹] | Fold (FcγRIIIa [3]) [fold]
1 | Rituximab (commercial sample; Rituxan, Roche) (antibody) | 1 | 306 | 0.0705 | 231000 | 
2 | Rituximab IgG1 homogeneous glycoform with α2,6-linked 3F^ax-Neu5Ac-terminated biantennary N-glycan (without core fucose) (antibody) |  | 8.18 | 0.002 | 244000 | 37.4
3 | Rituximab IgG1 homogeneous glycoform with α2,6-linked Neu5Ac-terminated biantennary N-glycan (G2S2, without core fucose) (antibody) |  | 7.67 | 0.00206 | 268000 | 39.9
